# B1: P2+P3 (dsDNA)
# DNA 1: GTTATAAAATTATGAAATTTGCATAAATTCTTCAGCTTCCTATTTGGAGGAAGTGAAG
# DNA 2: CTTCACTTCCTCCAAATAGGAAGCTGAAGAATTTATGCAAATTTCATAATTTTATAAC
# B2: P1 (upstream of pho box) (dsDNA)
# DNA 1: TAGCAAGGGTCCGGGTTCACCGAAATCTATCTCATTTGCTA
# DNA 2: TAGCAAATGAGATAGATTTCGGTGAACCCGGACCCTTGCTA
# B3: P3 (downstream of pho box) (dsDNA)
# DNA 1: TTGCATAAATTCTTCAGCTTCCTATTTGGAGGAAGTGAAG
# DNA 2: CTTCACTTCCTCCAAATAGGAAGCTGAAGAATTTATGCAA
# B4: P1+P2 (dsDNA)
# DNA 1: TAGCAAGGGTCCGGGTTCACCGAAATCTATCTCATTTGCTAGTTATAAAATTATGAAAT
# DNA 2: ATTTCATAATTTTATAACTAGCAAATGAGATAGATTTCGGTGAACCCGGACCCTTGCTA
# B5: lasI promoter (dsDNA)
# DNA 1: TGCTCTGATCTTTTCGGACGTTTCTTCGAGCCTAGCAAGGGTCCGGGTTCACCGAAATCTATCTCATTTGCTAGTTATAAAATTATGAAATTTGCATAAATTCTTCAGCTTCCTATTTGGAGGAAGTGAAG
# DNA 2: CTTCACTTCCTCCAAATAGGAAGCTGAAGAATTTATGCAAATTTCATAATTTTATAACTAGCAAATGAGATAGATTTCGGTGAACCCGGACCCTTGCTAGGCTCGAAGAAACGTCCGAAAAGATCAGAGCA
# Tests used:
# PhoB = target: T1, PhoB (Pseudomonas aeruginosa PAO1, UniProt P23620 1-229); experiment: EMSA; conditions: protein: recombinant; tags: C-terminal His (pET-28b, NcoI-XhoI); chain copies: 2; label: biotin 3'-end; blunt
# T1 sequence: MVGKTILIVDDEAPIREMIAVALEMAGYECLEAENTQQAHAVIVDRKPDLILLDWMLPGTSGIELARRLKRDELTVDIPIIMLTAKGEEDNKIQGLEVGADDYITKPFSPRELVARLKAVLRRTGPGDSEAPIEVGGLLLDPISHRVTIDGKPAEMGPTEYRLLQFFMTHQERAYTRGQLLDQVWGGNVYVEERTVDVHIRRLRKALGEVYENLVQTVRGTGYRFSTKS
# PhoB(D54A) = PhoB(D54A) (Pseudomonas aeruginosa PAO1, UniProt P23620 1-229, D54A); experiment: EMSA; conditions: protein: recombinant; tags: C-terminal His (pET-28b); chain copies: 2; label: biotin 3'-end; blunt
# RsaL = RsaL (Pseudomonas aeruginosa PAO1, UniProt Q9X7H4 1-80); experiment: EMSA; RsaL-specific shift; displaced by increasing PhoB (competes at 3 uM); conditions: protein: recombinant; tags: C-terminal His (pET-28b); chain copies: 2; label: biotin 3'-end; blunt
Binder,binding result (PhoB),binding result (PhoB(D54A)),binding result (RsaL)
B1,binds,,
B2,no binding,,
B3,no binding,,
B4,binds,,
B5,binds,binds,binds
